The assay has as its target porcine cytochrome P450 17A1 (CYP17A1), wild type (pig (Sus scrofa)) (UniProt P19100). Nature of the assay: cell-based or functional assay. Conditions: scale: ratio.
Sequence of UniProt P19100 (P19100 whole entry H407L, form in doubt): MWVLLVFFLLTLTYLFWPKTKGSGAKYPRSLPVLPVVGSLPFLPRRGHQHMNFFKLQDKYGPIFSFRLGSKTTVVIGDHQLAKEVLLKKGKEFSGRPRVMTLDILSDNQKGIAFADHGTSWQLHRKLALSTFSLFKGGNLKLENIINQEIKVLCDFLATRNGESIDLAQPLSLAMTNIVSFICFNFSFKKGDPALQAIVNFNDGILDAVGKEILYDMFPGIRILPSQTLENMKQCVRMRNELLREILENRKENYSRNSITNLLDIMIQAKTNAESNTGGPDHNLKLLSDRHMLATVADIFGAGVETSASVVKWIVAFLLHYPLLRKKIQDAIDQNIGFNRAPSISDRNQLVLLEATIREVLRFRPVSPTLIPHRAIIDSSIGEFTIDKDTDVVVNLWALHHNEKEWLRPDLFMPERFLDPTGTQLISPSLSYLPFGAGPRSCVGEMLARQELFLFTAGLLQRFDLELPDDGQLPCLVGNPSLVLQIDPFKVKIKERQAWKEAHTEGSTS
As to “porcine cytochrome b5 type A double mutant CYB5A-N21K+L28V (from UniProt P00172 2-134)”, the Overall conversion (ratio of activity with b5/activity without b5), pregnenolone metabolism in transfected HEK-293 cells turned out to be 1.05.

With “porcine cytochrome b5 type A double mutant CYB5A-R52M+N62S (from UniProt P00172 2-134)”, the Overall conversion (ratio of activity with b5/activity without b5), pregnenolone metabolism in transfected HEK-293 cells came out at 0.957.

“porcine cytochrome b5 type A mutant CYB5A-G57R (from UniProt P00172 2-134)”: the Overall conversion (ratio of activity with b5/activity without b5), pregnenolone metabolism in transfected HEK-293 cells turned out to be 0.865.

“porcine cytochrome b5 type A mutant CYB5A-L28V (from UniProt P00172 2-134)”: the Overall conversion (ratio of activity with b5/activity without b5), pregnenolone metabolism in transfected HEK-293 cells was determined as 1.2.

Take “porcine cytochrome b5 type A mutant CYB5A-N21K (from UniProt P00172 2-134)”: the Overall conversion (ratio of activity with b5/activity without b5), pregnenolone metabolism in transfected HEK-293 cells amounted to 1.36.

On to “porcine cytochrome b5 type A mutant CYB5A-N62S (from UniProt P00172 2-134)”, for which the Overall conversion (ratio of activity with b5/activity without b5), pregnenolone metabolism in transfected HEK-293 cells was determined as 2.16.

With “porcine cytochrome b5 type A mutant CYB5A-QM R52M/G57R/N62S/T70S (from UniProt P00172 2-134)”, the Overall conversion (ratio of activity with b5/activity without b5), pregnenolone metabolism in transfected HEK-293 cells turned out to be 1.4.

On to “porcine cytochrome b5 type A mutant CYB5A-R52M (from UniProt P00172 2-134)”, for which the Overall conversion (ratio of activity with b5/activity without b5), pregnenolone metabolism in transfected HEK-293 cells is 0.765.

Take “porcine cytochrome b5 type A mutant CYB5A-T70S (from UniProt P00172 2-134)”: the Overall conversion (ratio of activity with b5/activity without b5), pregnenolone metabolism in transfected HEK-293 cells turned out to be 1.09.

The values are drawn from patent US20150106963A1.
